The values that follow come from patent US20020151680A1 (VEGENICS, published 2002).

Holding throughout (assay): 35S IP, receptor-Fc
The target in one experiment is T1, VEGFR-1-Fc (UniProt P17948 27-331).
T1 construct: domain: first three Ig domains; expressed in Drosophila S2 cells, purified on Protein A sepharose; also called VEGFR-1-Fc fusion protein; not shown: Fc fragment from the Signal-pIgPlus vector
As for the experimental part: (§1) The binding assay procedure was identical to the immunoprecipitation using pentahistidine antibody described in Example 2, apart from the composition of the immunoprecipitation (IP) mixes. The IP mixes used for the receptor binding analysis were as follows: For VEGFR- 1 binding assays, the IP mix was phosphate buffered saline (PBS) containing 1.5% BSA, 0.06% Tween 20, 3 μg/ml heparin and 400 ng/ml VEGFR-1 -Fc fusion protein (100 μl of this IP mix was added to 200 μl of sample supernatant); for VEGFR-2 binding assays, the IP mix was 82% conditioned cell supernatant from 293T cells transiently expressing VEGFR-2-Fc fusion protein in mixture with 18% of a PBS solution that contained 5% BSA, 0.2% Tween 20, and 10 μg/ml heparin (250 μl of IP mix was added to 200 μl of sample supernatant); and for VEGFR-3 binding assays, the IP mix was 82% conditioned cell supernatant from 293T cells transiently expressing VEGFR-3-Fc fusion protein, 18% of PBS containing 5% BSA, 0.2% Tween 20, and 10 μg/ml heparin (250 μl of IP mix was added to 200 μl of sample supernatant).

The target of the next experiment is T2, VEGFR-3-Fc (UniProt P35916 25-329).
T2 construct: domain: first three Ig domains; used as conditioned supernatant of 293T cells; also called VEGFR-3-Fc fusion protein; not shown: Fc fragment of the pIg vector
T2 sequence (looked up): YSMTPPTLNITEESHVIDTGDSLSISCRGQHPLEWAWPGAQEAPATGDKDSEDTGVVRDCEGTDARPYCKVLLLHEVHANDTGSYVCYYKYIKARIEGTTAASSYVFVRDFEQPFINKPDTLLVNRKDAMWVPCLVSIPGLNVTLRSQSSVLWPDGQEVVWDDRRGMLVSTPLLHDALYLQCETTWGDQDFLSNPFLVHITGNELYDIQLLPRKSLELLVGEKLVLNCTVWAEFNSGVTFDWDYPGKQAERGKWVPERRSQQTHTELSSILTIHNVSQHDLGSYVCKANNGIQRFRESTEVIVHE
As for the experimental part:
as §1

In a further experiment the target is T3, VEGFR-2-Fc (UniProt P35968 24-326).
T3 construct: domain: first 3 Ig domains; used as conditioned supernatant of 293T cells; also called VEGFR-2-Fc fusion protein; not shown: Fc fragment of the pIg vector
As for the experimental part: as §1

T3 sequence (P35968 24-326): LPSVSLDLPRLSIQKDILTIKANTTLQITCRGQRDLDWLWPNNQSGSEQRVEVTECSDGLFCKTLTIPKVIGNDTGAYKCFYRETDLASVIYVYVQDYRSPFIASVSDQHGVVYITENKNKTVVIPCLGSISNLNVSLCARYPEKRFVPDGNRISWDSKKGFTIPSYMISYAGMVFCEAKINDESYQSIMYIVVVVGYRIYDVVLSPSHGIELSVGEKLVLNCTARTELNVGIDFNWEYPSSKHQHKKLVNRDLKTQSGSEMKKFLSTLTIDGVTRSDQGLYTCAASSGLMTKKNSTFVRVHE
T1 sequence (P17948 27-331): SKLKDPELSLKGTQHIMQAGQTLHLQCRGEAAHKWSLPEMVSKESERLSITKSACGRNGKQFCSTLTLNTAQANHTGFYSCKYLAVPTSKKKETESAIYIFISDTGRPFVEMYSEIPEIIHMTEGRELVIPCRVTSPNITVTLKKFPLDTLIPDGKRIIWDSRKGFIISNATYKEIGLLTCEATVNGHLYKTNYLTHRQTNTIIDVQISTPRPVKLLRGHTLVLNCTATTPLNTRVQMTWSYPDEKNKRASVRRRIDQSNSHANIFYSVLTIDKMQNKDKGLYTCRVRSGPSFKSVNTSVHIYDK

B1: 31-6 (ligand)
chain: GQNHHEVVKSIDNEWRKTQCMPIETLVDIFQEYPDEIEYIFKPSCVPLMRCGGCCNDEGLECMNTSTSYLSKTLFEIKPHQGQHIGEMSFANHTSCRCMSKLDLVFEQKLISEEDLNSAVDHHHHHH
Consider B1, for which the binding result with VEGFR-1-Fc, with VEGFR-3-Fc and in the experiment with VEGFR-2-Fc was “no binding” throughout.

B2: 12-16 (ligand)
chain: GQNHHEVVKFMDVYQRSYCHPIETLVDIFQEFGVATNTFFKPPCVSVYRCGLLQ
Take B2: the binding result in the experiment with VEGFR-1-Fc and in the experiment with VEGFR-2-Fc was “no binding” each time.

B3: 31-11 (ligand)
chain: GQNHHEVVKSIDNEWRKTQCMPIETLVDIFQEYPDEIEYIFKPSCVPLMRCGGCCNSEGLQCVPTEESNITMQIMRITVPLSQGPKPVTISFLQHNKCECRPKKDLVFEQKLISEEDLNSAVDHHHHHH
For the molecule B3, the binding result with VEGFR-1-Fc, with VEGFR-3-Fc and in the experiment with VEGFR-2-Fc was “no binding” throughout.

B4: 31-1 (ligand)
chain: GQNHHEVVKSIDNEWRKTQCMPIETLVDIFQEYPDEIEYIFKPSCVPLMRCGGCCNDEGLECVPTEESNITMQIMRIKPHQGQHIGEMSFLQHNKCECRPKKDLVFEQKLISEEDLNSAVDHHHHHH
As for B4, the binding result with VEGFR-1-Fc, with VEGFR-3-Fc and with VEGFR-2-Fc was “no binding” throughout.
